Assay [1] deals with RGA5_S (RGA5 982-1116), small C-terminal fragment of RGA5 carrying the HMA domain (rice) (UniProt F7J0N2). The assay can be described thus: ITC.
Assay [2] shares this target. The assay can be described thus: crystal structure.
Assay [3] deals with minimal RGA5HMA construct (RGA5 991-1072) (rice) (UniProt F7J0N2). The experiment in a line: ITC. (ITC needs no label: the signal is the heat of the interaction.)

In assay [1], “dSP-AVR-Pia (AVR-Pia with its signal peptide deleted), recombinant (natural protein)” had a Kd of 1.8 µM.
In assay [2], “dSP-AVR1-CO39 (AVR1-CO39 with its signal peptide deleted), wild type, recombinant (natural protein)” gave a stoichiometry N of 1. The same substance had a Kd in assay [3] of 7.2 µM.

As usually defined, the Kd is the constant that tells how readily two partners part at equilibrium. Lower therefore signals higher affinity. By stoichiometry N is commonly meant a count of units in the complex or per binding partner.

(Values after paper PMC6233088.)
